The supplement of paper PMC12042874
± gives the uncertainty stated by the source.

Assay: amyloid nucleation score (Sup35N fusion, yeast selection) (log enrichment); library NNK1; higher = more nucleation; inactive = no reads after selection
Procedure, shortened: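 Nucleation score: DiMSum log enrichment of output over input reads, centred on the mode score of non-aggregating sequences. Only sequences with at least 100 input reads were kept. Reads came from Illumina sequencing of plasmid inserts before and after 7 days of growth at 30°C without adenine and uracil, in psi-negative yeast expressing Sup35N fused to peptides of 20 random codons after 24 hours of induction with 100 μM copper sulfate.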

Row | Substance | amyloid nucleation score
1 | DTGLRLD | 0.536 ± 0.54
2 | APVVGTNSTTGEYSLTPSSW | 0.741 ± 0.41
3 | STHCFWVTPGD | 0.483 ± 0.83
4 | YNDMVICSTTDGTLSYCRHF | 0.329 ± 0.26
5 | AILRHRSVNSGGELCGSKFP | 0.293 ± 1
6 | SDVVGGYWEDKTSSYGSRLM | 0.423 ± 0.52
7 | MLTQPAEAKEARVSFCSLYM | 1.01 ± 0.53
8 | WSTHRQESFALYSKCMEVRR | 0.186 ± 0.28
9 | RVIAYKANPVNTFSYPVWAE | -0.133 ± 0.44
10 | VIRYSIKSCFLYIKTYQGYM | -0.907 ± 0.43
11 | KYSEDLIRQEDVVRYMGTMS | -0.056 ± 0.24
12 | GLWLQL | 0.216 ± 0.26
13 | DLCTNYQWFRAAYCYMSRVY | 1.2 ± 0.98
14 | NAFNHFYPTQPFLVQDCWRR | 0.605 ± 0.72
15 | EKWKKAAIWFFLSYWLAVWR | -0.301 ± 1.2
16 | HKLFNALNPKKG | 0.532 ± 1.2
17 | CISGD | 0.429 ± 0.37
18 | YIMFDVLLTDKRPSSSVCSC | 3.41 ± 0.069
19 | NKNMSNKFVSIMQKFFSIDG | 2.72 ± 0.13
20 | WYQLVVVEQGSTLYS | 0.341 ± 0.68
21 | LYCTLLKDSVSSLAVTYMSY | -0.071 ± 0.28
22 | QRVIAGPPNRAGKAYQALSR | 0.107 ± 0.53
23 | WLISLFRDDDRFNKVSKRAA | -0.3 ± 0.38
24 | GWCFVSRDLVNYLMCVTAGV | -1.02 ± 0.88
25 | SHEGTGLGMGAVG | -0.01 ± 0.36
26 | YFYDTWGA | -0.235 ± 0.47

Row | Substance | amyloid nucleation score
27 | HIDWSNVSYGDDRYGSGDCR | 0.142 ± 0.19
28 | TDARTR | 1.15 ± 0.36
29 | KVWSLKLSFGSLNMPMGYV | 0.399 ± 0.26
30 | SNTSRLVRRVVQSPYTTCGG | 0.312 ± 0.46
31 | LITNP | 2.86 ± 0.12
32 | TEGFGW | 1.28 ± 0.35
33 | SVRCCRFGIGGYWP | -1.07 ± 1
34 | TRNLMPSRSFG | 2.08 ± 0.28
35 | NSAVYSCL | inactive
36 | HVVFVMDVRYPKIAVVYLLA | 1.1 ± 0.66
37 | GTRCMALALGLHIYIFIRGG | -0.161 ± 0.46
38 | TGLSCCCMNISRNGREMVPR | 6.281 ± 0.058
39 | NFDNYVLLPLALTC | inactive
40 | CLMLAGRFIC | -0.422 ± 0.56
41 | TEVWCIQLY | 0.787 ± 0.46
42 | VNAIRSHAVWNGGQGPRFHS | -0.098 ± 0.42
43 | GSMNVECDRDRDRYNVCHYR | -0.569 ± 0.39
44 | HVFSLKRPDGCRRR | 0.711 ± 0.38
45 | QGSCCD | -0.815 ± 0.86
46 | VGLSVRACNFTRVGLMSFRD | 0.388 ± 0.37
47 | YKSVRSVVWWCLRNSLHFVW | 1.91 ± 0.6
48 | LMKGTYFIMCNLLAYECLTR | 2.78 ± 0.14
49 | LKAIFVFFVEFRDPLIMRES | 0.269 ± 0.79
50 | CVVFAVKGCAGGWTRFMLDN | -0.268 ± 0.4
51 | NFIFVR | 0.706 ± 0.53
52 | EVPMVFRGNEGVSRDCSLVG | -0.469 ± 0.42

Row | Substance | amyloid nucleation score
53 | ERYRFRGIKLHRGDSWRDIC | 1.14 ± 0.71
54 | NKGALRLRFYGIFEVECVVE | 1.09 ± 0.4
55 | VEVCRTNWLVEL | 1.09 ± 0.57
56 | ARATS | -0.53 ± 0.52
57 | CEMKASGLKYVHRFNSIPVM | 0.984 ± 0.57
58 | GISLSLVVERSGK | 1.49 ± 0.21
59 | GLLVGLQQCYNYGWKGSDCN | 0.504 ± 0.75
60 | SRDEFCG | -0.326 ± 0.47
61 | TIFAWAKHGQSNTVSRLGGF | 0.118 ± 0.44
62 | QQRLWRNAWTDMARKVSTSR | 0.452 ± 1.2
63 | VMVIMDS | 2.11 ± 0.21
64 | AFMYYMKPSMPIYELRILEG | inactive
65 | VALWYFCCVVAYYGGARLVS | 2.06 ± 0.33
66 | CSLSSRNDLGCIMVLLYAWI | 0.605 ± 0.33
67 | LKQTPMLGDMGWGHRCLGKT | -0.262 ± 0.73
68 | SIGVGCGEVCFLYRSEPIFV | -0.04 ± 0.31
69 | GYIVYDIMYAIFYKQTVYLI | inactive
70 | ISCSVKILRCLTCMLFSSVV | -0.8 ± 1.3
71 | LDSGQAPSMLLWGSNYWEKL | 0.808 ± 0.9
72 | NNMLILFTCGFYYKVYSPVQ | 3.18 ± 0.17
73 | SRVVFTSM | -1.18 ± 1.6
74 | VLILVDGSKMAPTALSCYSH | 1.34 ± 0.49
75 | AKMIDR | 0.399 ± 0.5
76 | CSFLELLWDVGRCSASQQCM | -0.943 ± 1.7
77 | IVNAGICPGNSRYSGNGATR | -0.162 ± 0.53
78 | NVVSF | -0.466 ± 1.2

Row | Substance | amyloid nucleation score
79 | VFCVSRTINGYN | -0.374 ± 0.48
80 | HSVNACLTGRKGAPLRDKPG | 0.166 ± 0.78
81 | YLRFTV | 2.57 ± 0.27
82 | LLLIRSYKCNGRRIRICSLL | -0.862 ± 0.76
83 | YIVPQLT | 1.47 ± 0.81
84 | YGHLTAGGCWSGQTNNARLG | -0.488 ± 0.9
85 | INHVMHGMEVRRGVNGRWMY | 0.312 ± 1.1
86 | SARRRRYGEAGSLGHELQWT | 0.675 ± 0.78
87 | FKIFD | 1.15 ± 0.81
88 | LSTGLKFACATRVSYALVRV | 0.117 ± 0.5
89 | TVWKSLLHNSAAAGV | 0.109 ± 1.6
90 | SFDNCLFVVVAAAIVNQPVC | 5.83 ± 0.09
91 | FGFFWV | 0.099 ± 0.7
92 | LAFGFTSWS | 0.49 ± 0.38
93 | PAFFCFWNNLSCVSTWSYLV | 2.44 ± 0.088
94 | TPVTRIILVVVIRVPSGSGY | -1.03 ± 0.8
95 | RVDTLYKVHLSKIRPSGGST | -0.096 ± 0.75
96 | VQAVIWWRGRDYGRHRSRPW | -0.35 ± 0.35
97 | ENNTGSVETLYRCSEKLVLE | 0.228 ± 0.27
98 | GFFGFIGRVMVIGRWREVPG | -0.265 ± 0.24
99 | GRPNATIKNLVIFSEMFYSL | 4.68 ± 0.063
100 | ILILNGLGGHVFARWYVACT | 0.002 ± 0.75
101 | WDATLNKITYKRSLVGSVSK | 0.275 ± 0.58
102 | LLAPAS | 0.032 ± 0.35
103 | SYTFSVYLVNWDGF | 2.43 ± 0.26
104 | DTNQGYGVSGQIVKGRICFN | -0.681 ± 0.47

Row | Substance | amyloid nucleation score
105 | TSFCGLVAPQLCKFSMRSLE | -0.504 ± 0.47
106 | LKDCSCVERQD | -0.072 ± 0.38
107 | WCVLTSMEAYWFGLSRN | 0.869 ± 0.54
108 | TRCCGFKRGGFVSYWMGSRP | 1.01 ± 0.51
109 | YFGYRCDYRCNPPLAPLCAN | 0.515 ± 0.43
110 | YSRYYVNVVWFLGKLRS | 0.012 ± 0.37
111 | IYCVGDFVP | -0.026 ± 0.35
112 | GMLDAY | inactive
113 | RLYWWDVMTSNMFVMAFRSR | inactive
114 | STEIATKGGGQLGIISTNDA | 0.254 ± 0.56
115 | ANGILV | 0.499 ± 0.28
116 | CQPLLSMYLVHYTA | 0.116 ± 0.2
117 | FLTTLGWSYHRQNQLRMPRF | 2.24 ± 0.16
118 | ELFSAIPATIHCI | -0.057 ± 1.1
119 | DLLTWDCLEHDVDMLLVGPN | 0.152 ± 0.36
120 | ENVYGWVG | 1.09 ± 0.15
121 | SLWNSYLETRV | 1.14 ± 0.69
122 | GFVEYYRVLTYDKM | 1.22 ± 0.88
123 | VLTRMDKFGARQTSVTQEAG | 0.102 ± 0.62
124 | RSICWKSFRRIFFDRW | 0.19 ± 0.85
125 | KSVFIYLGMISLVG | 0.352 ± 0.88
126 | VKSYNGVGTMYLSRIMLYQY | 0.163 ± 1.4
127 | IRYLWHVLMVRFEESRWSLY | -0.061 ± 0.36
128 | YGISVMIYDRPAISACQIKH | 2.71 ± 0.11
129 | CKMWTE | 0.405 ± 0.75
130 | CLISP | inactive
